Experimental data published in paper PMC10933150.

What was measured:
[1] = biological target: α7-mCherry (human α7 nicotinic acetylcholine receptor subunit with mCherry in the M3-M4 cytoplasmic loop) (human) (UniProt P36544)
[2] = biological target: α7-mCherry (human α7 nicotinic acetylcholine receptor subunit with mCherry in the M3-M4 cytoplasmic loop) (human) (UniProt P36544); remark: listed apart in the source
[3] = biological target: α7-mCherry (human α7 nicotinic acetylcholine receptor subunit with mCherry in the M3-M4 cytoplasmic loop) (human) (UniProt P36544); test: FRET or BRET; acceptor photobleaching FRET (apFRET) by confocal microscopy in live HEK293 cells 2 days after transfection; eGFP donor, mCherry acceptor; region of interest in the ER; in DMEM at 37 °C and 5% CO2

Chain of UniProt P36544 (P36544 23-502): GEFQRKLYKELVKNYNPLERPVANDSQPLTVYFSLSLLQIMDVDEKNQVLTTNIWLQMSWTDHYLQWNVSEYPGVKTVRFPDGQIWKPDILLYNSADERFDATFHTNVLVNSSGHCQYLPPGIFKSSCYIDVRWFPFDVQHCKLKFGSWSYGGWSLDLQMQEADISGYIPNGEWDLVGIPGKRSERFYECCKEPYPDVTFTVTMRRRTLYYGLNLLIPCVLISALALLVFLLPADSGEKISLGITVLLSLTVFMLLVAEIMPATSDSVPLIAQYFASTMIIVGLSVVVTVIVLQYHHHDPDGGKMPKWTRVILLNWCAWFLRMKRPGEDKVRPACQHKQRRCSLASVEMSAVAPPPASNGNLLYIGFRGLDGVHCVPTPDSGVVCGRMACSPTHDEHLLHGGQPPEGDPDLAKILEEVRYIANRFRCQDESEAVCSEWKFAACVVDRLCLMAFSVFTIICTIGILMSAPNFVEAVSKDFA

fold decrease in amplitude of maximal currents elicited by 1 mM acetylcholine in Xenopus oocytes (level of functional α7 nAChR); untagged α7 and RIC3G88R, tagged constructs gave the same pattern (data not shown) [2] | FRET efficiency (EF) [3] | Substance | ^125I-α-bungarotoxin binding to intact HEK293 cells (cell surface α7), decrease with eGFP-RIC3G88R against eGFP-RIC3WT, α7:RIC3 cDNA 1:1 or 5:1 [1]
1.5 fold | 10.7% | eGFP-RIC3G88R (RIC3 variant G88R with eGFP fused to the N-terminus) (from UniProt Q7Z5B4-5 29-368) (natural protein) | 50%
 | 7.24% | eGFP-RIC3WT (wild-type RIC3 with eGFP fused to the N-terminus) (from UniProt Q7Z5B4-5 29-368) (natural protein) | 
